Results reported in patent US6887705B1, “Tyrosine phosphorylated cleavage furrow-associated proteins (PSTPIPs)” (Genentech, Inc., priority 1997, dated 2005).
Entries after “also recorded” stand apart in the source; their conditions may differ. Read-outs that look alike come from different tables or passages of the source.

B1: W232A mutant of PST PIP, C-terminal FLAG (other)
chain: MMAQLQFRDAFWCRDFTAHTGYEVLLQRLLDGRKMCKDVEELLRQRAQAEERYGKELVQIARKAGGQTEMNSLRTSFDSLKQQTENVGSAHIQLALALREELRSLEEFRERQKEQRKKYEAIMDRVQKSKLSLYKKTMESKKAYDQKCRDADDAEQAFERVSANGHQKQVEKSQNKAKQCKESATEAERVYRQNIEQLERARTEWEQEHRTTCEAFQLQEFDRLTILRNALAVHCNQLSMQCVKDDELYEEVRLTLEGCDVEGDINGFIQSKSTGREPPAPVPYQNYYDREVTPLIGSPSIQPSCGVIKRFSGLLHGSPKTTPSAPAASTETLTPTPERNELVYASIEVQATQGNLNSSAQDYRALYDYTAQNSDELDISAGDILAVILEGEDGWWTVERNGQRGFVPGSYLEKLDYKDDDDK
notes: In vitro translated or expressed in COS cells; also called W232A PST PIP; PST PIP with an alanine replacement mutation at tryptophan232
B2: PSTPIP: murine PST Phosphatase Interacting Protein, 415 residues (SEQ ID NO:1) (protein)
chain: MMAQLQFRDAFWCRDFTAHTGYEVLLQRLLDGRKMCKDVEELLRQRAQAEERYGKELVQIARKAGGQTEMNSLRTSFDSLKQQTENVGSAHIQLALALREELRSLEEFRERQKEQRKKYEAIMDRVQKSKLSLYKKTMESKKAYDQKCRDADDAEQAFERVSANGHQKQVEKSQNKAKQCKESATEAERVYRQNIEQLERARTEWEQEHRTTCEAFQLQEFDRLTILRNALWVHCNQLSMQCVKDDELYEEVRLTLEGCDVEGDINGFIQSKSTGREPPAPVPYQNYYDREVTPLIGSPSIQPSCGVIKRFSGLLHGSPKTTPSAPAASTETLTPTPERNELVYASIEVQATQGNLNSSAQDYRALYDYTAQNSDELDISAGDILAVILEGEDGWWTVERNGQRGFVPGSYLEKL
modifications: Mus Musculus

Experiments:
[1] = system: PST PIP - PTP HSCF association; experiment: Coprecipitation of PST PIP and PTP HSCF from co-transfected COS cells; assay type: cell-based
Description: (§1) COS-7 cells were transfected by electroporation. Briefly, 1.5×10^6 COS-7 cells were mixed with 24 μg total DNA in PBS and electroporated at 960 μF, […] (Bio-Rad™ Gene Pulsar™). Following electroporation, cells were seeded in 10 cm dishes and incubated for 3 days. 10-cm dishes of transfected COS cells were washed twice with ice-cold PBS, and lysed in 1 ml of M-RIPA (50 mM Tris 7.4, 1% NP40, 0.25% DOC, 150 mM NaCl, 1 mM sodium ortho-vanadate, 1 mM NaF plus Complete™ Protease Inhibitors (Boehringer Mannheim)). Lysates were incubated for 15 minutes with 100 μl UltraLink Immobilized Protein A/G™ (Pierce) at 4° C., followed by centrifugation for 5 minutes. Supernatants were collected and stored at −70° C. or directly immunoprecipitated. 5 μg of M2 or 12CA5 was added to 500 μl of lysate and incubated overnight at 4° C. Ultralink Protein A/G™ was added and incubation continued for 2 hours at 4° C. The immune complexes were washed 3 times with M-RIPA. The proteins were subjected to SDS-PAGE and transferred to nitrocellulose in 1X Transfer Buffer™ (Novex). Immunoblots were blocked overnight at 4° C. in 3% milk/PBS. To detect Flag-tagged PIP, blots were incubated with 10 μg/ml Bio-M2 (Biotinylated anti-FLAG monoclonal Ab, KODAK) followed by incubation in 10 μg/ml streptavidin-HRP (UBI). To detect HA-tagged PTPhscf, blots were incubated in anti-(HA)-peroxidase (Boehringer Mannheim) as per manufacturer's instructions. To detect phosphotyrosine, blots were incubated in HRP-conjugated 4G10 (anti-phosphotyrosine monoclonal, UBI) as per manufacture's instructions.
In vitro binding analyses between various PTP HSCF and PST PIP constructs were performed as previously described (Spencer et al, (1997), supra). Briefly, plasmids were transcribed and translated in vitro using the TnT Rabbit Reticulocyte Lysate System (Promega). Samples were diluted in 50 mM HEPES, pH 7.2, 1% triton X-100, 10% glycerol, 100 mM NaCl, and 2 μg/ml each of leupeptin, pepstatin, aprotinin and PMSF (lysis buffer). Samples were than reacted with GST fusion proteins at various concentrations, and the bound proteins were centrifuged using glutathione-sepharose beads and analyzed on SDS polyacrylamide gels. C-terminally-derived peptide inhibition studies were performed by incubating the GST fusion protein binding reactions in the presence of 10 μg/ml of the indicated peptides. Peptides were produced by FMOC-protected amino acids as previously described (Spencer et al, (1997), supra). In vivo interactions between various forms of PTP HSCF and PST PIP were also performed as previously described (Spencer et al, (1997), supra). Briefly, COS cells were transfected with various constructs, and after 48 hours, lysates were prepared and immunoprecipitated with antibodies to either the FLAG epitope contained at the C-terminus of PST PIP or an HA epitope contained at the N-terminus of PTP HSCF. The resultant blots were probed with anti-FLAG to detect PST PIP, anti-HA to detect PTP HSCF or anti-phosphotyrosine to detect levels of this modified amino acid in each protein.

[2] = system: PSTPIP tyrosine phosphorylation; experiment: Tyrosine phosphorylation of PSTPIP in COS cells co-transfected with V-src; assay type: cell-based; conditions: COS cells
Description: Baf3 cells were lysed in 1% Triton, 50 mM HEPES. 10% glycerol and 5 mM EDTA containing 1 μg/ml aprotinin, PMSF, leupeptin and pepstatin were 1 mM Sodium Vanadate and 10 mM Iodoacetic acid. Cells were treated with 0.1 mM Pervanadate for 4 hours before lysis. Immunoprecipitations were performed in the vanadate-containing lysis buffer using 1 μg/ml anti-PSTPIP polyclonal antibody and 400 μg of lysate protein at 4° C. overnight. Western blots were performed using 1 μg/ml affinity purified anti-PSTPIP or 1:5000 dilution of commercial 4G10 anti-phosphotyrosine monoclonal (Upstate Biotech). Signal was detected by HRPO-ECL reagents (Pierce). The C221-S mutant was as previously described (Cheng et al., (1996) supra). The PTP HSCF D197-A mutant was generated using PCR. Mutagenesis primer D197A.F ([…]) (SEQ ID NO:24), corresponding to nucleotide 591, and primer D197A.R ([…]) (SEQ ID NO:25) which corresponds to the stop codon, were used in PCR to generate a fragment that could be cut with Mscl and XbaI. pRK.HA.38 WT, a plasmid which encoded the wild type enzyme under the control of the cytomegalovirus promoter (Cheng et al., (1996) supra), was digested with Clal and Mscl and the resulting 600 bp fragment was ligated with the Mscl-Xbal PCR fragment into the Clal and Xbal sites of the pRK.tkneo. A plasmid encoding the V-src oncogene under the control of the SV40 early promoter was the kind gift of Dr. Art Levinson (CEO-Genetech, Inc.). NIH 3T3 cells and the COS-7 cells were cultured in high glucose DMEM supplemented with 10% FBS, 2 mM L-Glutamine, 10 mM HEPES pH 7.2 and pen-strep.
as §1
COS cells were transfected with a constant amount of either the wild type of W232A mutant of PST PIP and cotransfected with increasing amounts of a plasmid encoding the v-Src tyrosine kinase (Spencer et al, (1997), supra). Plasmid concentrations were equalized with an empty vector containing the CMV promoter. After 48 hours, lysates were prepare and immunoprecipitated with anti-FLAG monoclonal antibody. Precipitates were run on SDS polyacrylamide gels, blotted, and probed with either anti-FLAG antibody or anti-phosphotyrosine antibody as previously described (Spencer et al, (1997), supra). Bound antibodies were visualized using enhanced chemiluminescent reagents.

CHO cells = experiment: Confocal microscopy of PST PIP forms expressed in CHO cells; assay type: cell-based, Chinese hamster; conditions: transfected CHO cells
Description: Confocal microscopy was performed as previously described (Spencer et al, (1997), supra). Briefly, CHO cells in chamber slides were transfected using Lipofectamine and the indicated plasmids. 48 hours later, cells were fixed in formaldehyde and stained with an anti-FLAG epitope specific antibody (Kodak) and Fluorescein-Phalloidin (Molecular Probes). Anti-Flag stained cells were washed and stained with Cy3-conjugated sheep anti-mouse IgG. Stained cells were observed using Molecular Dynamics Confocal Microscope™ (2001) and analyzed with ImageSpace™ software (Molecular Dynamics).

| Molecule | in vivo association (coprecipitation) of PST PIP and PTP HSCF [1] | efficiency of tyrosine phosphorylation in the presence of v-Src versus wild type [2] | tyrosine phosphorylation of PST PIP forms in the presence of dominant negative PTP HSCF C-S (substrate trapping) [2] | levels of phosphotyrosine in mutant versus wild type PST PIP, densitometry ([2]; increasing v-Src plasmid) | cellular localization of PST PIP forms (assay for correct folding) (CHO cells) | in vivo association (coprecipitation) of PST PIP and PTP HSCF ([1]; listed as PST PIP wt) | in vivo association (coprecipitation) of PST PIP and PTP HSCF ([1]; listed as wild type PST PIP) | tyrosine phosphorylation of PST PIP forms in the presence of dominant negative PTP HSCF C-S (substrate trapping) ([2]; listed as PST PIP wt) | tyrosine phosphorylation of PST PIP forms in the presence of dominant negative PTP HSCF C-S (substrate trapping) ([2]; listed as wild type PST PIP) |
| --- | --- | --- | --- | --- | --- | --- | --- | --- | --- |
| B1 | complete lack of in vivo association; also recorded: neither coprecipitated with PTP HSCF | significantly more efficiently tyrosine phosphorylated | not hyperphosphorylated | 2-3 fold | indistinguishable from the wild type protein | – | – | – | – |
| B2 | – | – | – | – | predominantly co-localized with the cortical actin cytoskeleton | found in a complex with precipitated PTP HSCF | in vivo association of the proteins | hyperphosphorylated | enhanced tyrosine phosphorylation |
